B1: Danio rerio TRAF6 RZ3 (residues 50-213) (domain or fragment, UniProt Q6IWL4 50-213, looked up)
chain: MPPDQQGYDVEFDPPLESKYECPICLMGLRSAVQTPCGHRFCDSCIRKSIRDTGQKCPVDNEVLLEEQLFPDNFAKREILSLTVKCSNFGCSEKMELRQLEKHLSQCRFATAPCPQCQESVPISHLDEHKSQHCLQRIMTCPDCAGSFVYAVKQNHEQFCPFAN
notes: TRAF6, Danio rerio, residues 50-213 (RING and ZF1-3), 19.7 kDa, in pET24b; also called DrRZ3; D. rerio RZ3 TRAF6; source: E. coli BL21 (DE3), purified (HisTrap, size exclusion)
B2: Homo sapiens TRAF6 RZ3 (RING domain and first three zinc fingers, residues 50-211) (domain or fragment, UniProt Q9Y4K3 50-211, looked up)
chain: MEEIQGYDVEFDPPLESKYECPICLMALREAVQTPCGHRFCKACIIKSIRDAGHKCPVDNEILLENQLFPDNFAKREILSLMVKCPNEGCLHKMELRHLEDHQAHCEFALMDCPQCQRPFQKFHINIHILKDCPRRQVSCDNCAASMAFEDKEIHDQNCPLA
notes: TNF receptor-associated factor 6 (TRAF6), human, residues 50-211 (RING and ZF1-3), 20.0 kDa, in pET21d; also called HsRZ3; wild-type HsRZ3; source: E. coli BL21 (DE3), purified (HisTrap, size exclusion)
B3: Danio rerio TRAF6 RZ1 (RING and ZF1, residues 50-159) (domain or fragment, UniProt Q6IWL4 50-159, looked up)
chain: MPPDQQGYDVEFDPPLESKYECPICLMGLRSAVQTPCGHRFCDSCIRKSIRDTGQKCPVDNEVLLEEQLFPDNFAKREILSLTVKCSNFGCSEKMELRQLEKHLSQCRFA
notes: TRAF6, Danio rerio, residues 50-159 (RING and ZF1), 13.7 kDa, in pET24b; also called DrRZ1; source: E. coli BL21 (DE3), purified (HisTrap, size exclusion)
B4: Ubc13 (C87K, K92T, K94Q), the E2 moiety of the Ubc13~Ub conjugate (enzyme)
chain: MAGLPRRIIKETQRLLAEPVPGIKAEPDESNARYFHVVIAGPQDSPFEGGTFKLELFLPEEYPMAAPKVRFMTKIYHPNVDKLGRIKLDILTDQWSPALQIRTVLLSIQALLSAPNPDDPLANDVAEQWKTNEAQAIETARAWTRLYAMNNI
modifications: isopeptide-linked to ubiquitin (C87K allows the stable isopeptide link)
notes: Ubc13 (also called Ube2N), E2 enzyme, with C87K, K92T and K94Q; Stands in the structures only as the Ubc13 moiety of the conjugate m4; also called Ube2N; not shown: GST, N-terminal, cleaved

What was measured:
[1] = target: T1, isopeptide-linked Ubc13-ubiquitin conjugate (Ubc13 C87K, K92T, K94Q linked to wild-type ubiquitin) (UniProt P61088 1-152; P0CG48 1-76, C87K | K92T | K94Q, isopeptide-linked to ubiquitin (C87K allows the stable isopeptide link) | isopeptide-linked to Ubc13); assay: SEC; DrRZ3 and Ubc13~Ub at 250 µM, alone or mixed, Superdex 200 10/300, 20 mM Tris-HCl pH 7.5, 150 mM NaCl; fractions on 16% SDS-PAGE; details: both partners purified
T1 construct: Ubc13 (also called Ube2N), E2 enzyme, with C87K, K92T and K94Q; ubiquitin, wild-type, expressed untagged; Two chains joined covalently by an isopeptide bond; also called Ubc13~Ub conjugate; source: proteins from E. coli BL21 (DE3); conjugated in vitro with E1 and ATP, purified (Superdex 75); not shown: GST, N-terminal, cleaved

[2] = target: T2, ubiquitin (wild-type), the ubiquitin moiety of the Ubc13~Ub conjugate (UniProt P0CG48 1-76, isopeptide-linked to Ubc13); assay: crystal structure; DrRZ3-Ubc13~Ub complex, 3.9 Å, P4(2)2(1)2; 100-200 mM Na/K tartrate, 11-15% PEG 3350, 100 mM Bis-Tris propane pH 7.5; details: both partners purified
T2 construct: ubiquitin, wild-type, expressed untagged; Stands in the structures only as the ubiquitin moiety of the conjugate m4; In the activity assays labelled or mutated ubiquitins (Cy3-Met-Cys-ubiquitin K63R, D77 ubiquitin) were used; source: E. coli BL21 (DE3), untagged, purified (HiTrap SP, Superdex 75)

[3] = target: the molecule itself; assay: as above
[4] = target: T1, isopeptide-linked Ubc13-ubiquitin …; assay: pull-down; GST-fused Uev1A on resin mixed with TRAF6, Ubc13 and Ubc13~Ub conjugates; PBS, 0.2% TWEEN 20, 1 mM DTT, 4 °C, 1 h; Coomassie-stained SDS-PAGE; details: both partners purified
[5] = target: T2, ubiquitin (wild-type), the ubiquitin …; assay: crystal structure; DrRZ1-Ubc13~Ub complex, 3.4 Å, C222(1); sodium citrate, 100 mM Bis-Tris propane, 17-23% PEG 3350; details: both partners purified
[6] = target: B4; assay: as above; details: both partners purified
[7] = target: T1, isopeptide-linked Ubc13-ubiquitin …; assay: as above; details: both partners purified
[8] = target: the molecule itself; assay: as above
[9] = target: B1; assay: crystal structure; DrRZ3-Ubc13~Ub complex, 3.9 Å, P4(2)2(1)2; 100-200 mM Na/K tartrate, 11-15% PEG 3350, 100 mM Bis-Tris propane pH 7.5; details: both partners purified

Binder: B1
binding result [1]: binds | binding result [2]: binds | stoichiometry N [3]: 2

Binder: B2
binding result [4]: binds

Binder: B3
binding result [5]: binds | binding result [6]: binds | binding result [7]: binds | stoichiometry N [8]: 2

Binder: B4
binding result [5]: binds | binding result [9]: binds

— article PMC5702613 (Nature Communications, 2017)
